In publication PMC7661550, “A ‘Split-Gene’ Transketolase From the Hyper-Thermophilic Bacterium Carboxydothermus hydrogenoformans: Structure and Biochemical Characterization” (Frontiers in Microbiology, 2020):

B1: ChTK-F (Carboxydothermus hydrogenoformans Z-2901) (protein)
chain 1: MQDEILNLKLIANQLRQHVVKMVGEANSGHPGGSLSAADILAVLFFKEMRIDPANPKWQDRDRFVLSKGHASPVLYAALAERGFFPKEWLSQFRKINSPLQGHPDMKKVPGVEMSTGSLGQGFSTAVGMALGLKLDRSPARVYVLLGDGEIQEGIVWEAAMAAAHYKLNNLTAILDYNGLQIDGPVQEVMNPEPVADKWRSFGFKVITVDGHNIPEIINAIDAARLHLEGPTIIIAKTVKGKGVSFMENRVEWHGSAPKPEQVAEALSELQVGREKLWEE
chain 2: MGGIATREAYGKALVELGQENPKIVVLDADLSKSTKTSDFAKAFPERFFNMGIAEQNLMGVAAGLSTVGKIPFASTFAVFAAGRAFEIIRNSICYPKLNVKIAATHAGLTVGEDGASHQAIEDLALMRVLPNMQVFVPADAAQTRAIVKKAAEIEGPVYIRLGRSGVPEVFSPDIRFEPGRGTVLKEGKDVTIVALGIMTAKALEAAKMLEAEGIAARVVDMASLKPIDRELLVESARLTGAVVTAEEHSVIGGLGSAVAEVLSEEYPIPVVKVGVNDVFGESGTPQALLEKYGLTARDVVAAVQKALTLKR
notes: two split-gene subunits (alpha ChTK-N, PP domain)
B2: ChTK-C, C-terminal 'split-gene' transketolase polypeptide (Pyr and C-terminal domains) of Carboxydothermus hydrogenoformans (natural protein, Carboxydothermus hydrogenoformans Z-2901)
chain: B1 chain 2
notes: Pyr domain residues 1-162 and C-terminal domain residues 164-312; calculated mass of the His-tagged protein 33.2 kDa; chain D of PDB 6YAK, all chains of PDB 6YAJ; The gene was cloned into the LIC site of pLATE51; By gel filtration the free protein elutes as a tetramer; two copies stand in the α2β2 heterotetramer ChTK-F; also called β subunit of ChTK-F (α2β2); ChTK β4; source: E. coli BL21 DE3*, …
B3: ChTK-N, N-terminal 'split-gene' transketolase polypeptide (PP domain) of Carboxydothermus hydrogenoformans (natural protein, Carboxydothermus hydrogenoformans Z-2901)
chain: B1 chain 1
notes: forms the PP domain; calculated mass of the His-tagged protein 31.0 kDa; chain A of PDB 6YAK; The gene was cloned into the LIC site of pLATE51; By gel filtration the free protein elutes as a dimer; two copies stand in the α2β2 heterotetramer ChTK-F; also called α subunit of ChTK-F (α2β2); source: E. coli BL21 DE3*, purified (heat treatment at 50°C, HisTrap/Ni-NTA, Superdex 200 gel filtration)

Experiments:
[1] = substrate: O=CCO; experiment: purified protein; assay type: biochemical, Carboxydothermus hydrogenoformans; conditions: hydroxypyruvate 100 mM as ketol donor, TPP, CaCl2, 10 mM HEPES pH 7.2, 0.1 M NaCl, room temperature
[2] = target: the molecule itself; experiment: SEC; each protein alone on a calibrated Superdex 200 HiLoad 16/60 column, 10 mM HEPES, 0.1 M NaCl, pH 7.2; apparent molecular mass
[3] = target: the molecule itself; experiment: crystal structure; reconstituted ChTK-F α2β2 with TPP and Ca2+, 2.1 M DL-malic acid pH 7.0, space group I222, 1.4 Å (PDB 6YAK); also a PEG 1500 crystal form at 2.1 Å

Protein | Km [1] [mM] | stoichiometry N [2] | stoichiometry N [3]
B1 | 41 ± 4 |  | 
B2 |  | 4 | 2
B3 |  | 2 | 
